Data: PMC13220886 (Science Advances, 2026)

Columns and labels:
sfCHT = biological target: T1, sfCHT (Salimicrobium flavidum, UniProt A0A1N7IZC0); assay: inhibition of [3H]-choline uptake into proteoliposomes; assay type: biochemical; settings: 1 μM HC-3, 1 μM choline, 137 mM NaCl, pH 7.4, room temperature
T1 construct: gene SAMN05421687_10333; full length, C-terminal 3C-His10 tag (cut by 3C for cryo-EM), E. coli BL21; monomer in DDM or E. coli polar lipid proteoliposomes; residues 22-69 and 81-543 built
T1 sequence (A0A1N7IZC0 entry or part of it): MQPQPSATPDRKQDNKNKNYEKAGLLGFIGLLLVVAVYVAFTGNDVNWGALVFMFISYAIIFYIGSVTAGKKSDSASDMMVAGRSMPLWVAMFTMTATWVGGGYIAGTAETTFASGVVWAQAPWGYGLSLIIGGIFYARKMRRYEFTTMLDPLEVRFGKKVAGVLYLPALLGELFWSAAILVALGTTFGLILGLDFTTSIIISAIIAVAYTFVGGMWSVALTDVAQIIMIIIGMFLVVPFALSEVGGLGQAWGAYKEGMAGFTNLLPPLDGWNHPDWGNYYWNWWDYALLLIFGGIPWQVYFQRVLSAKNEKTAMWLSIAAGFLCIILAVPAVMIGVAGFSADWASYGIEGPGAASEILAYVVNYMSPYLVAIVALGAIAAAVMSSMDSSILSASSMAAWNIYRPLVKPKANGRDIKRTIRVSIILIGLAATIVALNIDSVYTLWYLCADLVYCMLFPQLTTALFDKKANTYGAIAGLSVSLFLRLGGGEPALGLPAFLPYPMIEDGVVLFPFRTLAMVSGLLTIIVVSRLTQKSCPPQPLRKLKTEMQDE

[1] = substrate: C[N+](C)(C)CCO; assay: [3H]-choline uptake, saturation kinetics in transfected HeLa cells; assay type: cell-based, Homo sapiens; settings: pH 7.4, 137 mM NaCl, room temperature, 2 min, LV/AA background, labelled compound
Text: [3H]-choline uptake, saturation kinetics in transfected HeLa cells on CHT1 (endocytosis-resistant CHT1-LV/AA, called WT CHT1)

Row | Molecule | uptake at 1 μM HC-3 (sfCHT) | Km [1] [µM] | Vmax [1] [µmol/min/mg]
1 | C[N+]1(C)CCOC(O)(c2ccc(-c3ccc(C4(O)C[N+](C)(C)CCO4)cc3)cc2)C1 (stereo not drawn) [HC-3] | selectively suppressed Na^+-dependent uptake but had no effect in Na^+-free conditions |  | 
2 | CHT1 (endocytosis-resistant CHT1-LV/AA, called WT CHT1) (Homo sapiens; L531A/S263A/V532A) (protein, full length; transient transfection, HeLa cells) MAFHVEGLIAIIVFYLLILLVGIWAAWRTKNSGSAEERSEAIIVGGRDIGLLVGGFTMTATWVGGGYINGTAEAVYVPGYGLAWAQAPIGYSLSLILGGLFFAKPMRSKGYVTMLDPFQQIYGKRMGGLLFIPALMGEMFWAAAIFSALGATISVIIDVDMHISVIISALIATLYTLVGGLYSVAYTDVVQLFCIFVGLWISVPFALSHPAVADIGFTAVHAKYQKPWLGTVDSSEVYSWLDSFLLLMLGGIPWQAYFQRVLASSSATYAQVLSFLAAFGCLVMAIPAILIGAIGASTDWNQTAYGLPDPKTTEEADMILPIVLQYLCPVYISFFGLGAVSAAVMSSADSSILSASSMFARNIYQLSFRQNASDKEIVWVMRITVFVFGASATAMALLTKTVYGLWYLSSDLVYIVIFPQLLCVLFVKGTNTYGAVAGYVSGLFLRITGGEPYLYLQPLIFYPGYYPDDNGIYNQKFPFKTLAMVTSFLTNICISYLAKYLFESGTLPPKLDVFDAVVARHSEENMDKTIAAKNENIKLDELALVKPRQSMTLSSTFTNKEAFLDVDSSPEGSGTEDNLQ |  | 14.60 ± 2.03 | 0.000659
3 | CHT1 (endocytosis-resistant CHT1-LV/AA, called WT CHT1) (Homo sapiens; L531A/Q259A/V532A) (protein, full length; transient transfection, HeLa cells) MAFHVEGLIAIIVFYLLILLVGIWAAWRTKNSGSAEERSEAIIVGGRDIGLLVGGFTMTATWVGGGYINGTAEAVYVPGYGLAWAQAPIGYSLSLILGGLFFAKPMRSKGYVTMLDPFQQIYGKRMGGLLFIPALMGEMFWAAAIFSALGATISVIIDVDMHISVIISALIATLYTLVGGLYSVAYTDVVQLFCIFVGLWISVPFALSHPAVADIGFTAVHAKYQKPWLGTVDSSEVYSWLDSFLLLMLGGIPWQAYFARVLSSSSATYAQVLSFLAAFGCLVMAIPAILIGAIGASTDWNQTAYGLPDPKTTEEADMILPIVLQYLCPVYISFFGLGAVSAAVMSSADSSILSASSMFARNIYQLSFRQNASDKEIVWVMRITVFVFGASATAMALLTKTVYGLWYLSSDLVYIVIFPQLLCVLFVKGTNTYGAVAGYVSGLFLRITGGEPYLYLQPLIFYPGYYPDDNGIYNQKFPFKTLAMVTSFLTNICISYLAKYLFESGTLPPKLDVFDAVVARHSEENMDKTIAAKNENIKLDELALVKPRQSMTLSSTFTNKEAFLDVDSSPEGSGTEDNLQ |  | 10.08 ± 1.50 | 0.000387
4 | CHT1 (endocytosis-resistant CHT1-LV/AA, called WT CHT1) (Homo sapiens; L531A/V532A/W406F) (protein, full length; transient transfection, HeLa cells) MAFHVEGLIAIIVFYLLILLVGIWAAWRTKNSGSAEERSEAIIVGGRDIGLLVGGFTMTATWVGGGYINGTAEAVYVPGYGLAWAQAPIGYSLSLILGGLFFAKPMRSKGYVTMLDPFQQIYGKRMGGLLFIPALMGEMFWAAAIFSALGATISVIIDVDMHISVIISALIATLYTLVGGLYSVAYTDVVQLFCIFVGLWISVPFALSHPAVADIGFTAVHAKYQKPWLGTVDSSEVYSWLDSFLLLMLGGIPWQAYFQRVLSSSSATYAQVLSFLAAFGCLVMAIPAILIGAIGASTDWNQTAYGLPDPKTTEEADMILPIVLQYLCPVYISFFGLGAVSAAVMSSADSSILSASSMFARNIYQLSFRQNASDKEIVWVMRITVFVFGASATAMALLTKTVYGLFYLSSDLVYIVIFPQLLCVLFVKGTNTYGAVAGYVSGLFLRITGGEPYLYLQPLIFYPGYYPDDNGIYNQKFPFKTLAMVTSFLTNICISYLAKYLFESGTLPPKLDVFDAVVARHSEENMDKTIAAKNENIKLDELALVKPRQSMTLSSTFTNKEAFLDVDSSPEGSGTEDNLQ |  | 357.60 ± 99.13 | 0.000543
5 | CHT1 (endocytosis-resistant CHT1-LV/AA, called WT CHT1) (Homo sapiens; L531A/V532A/W141F) (protein, full length; transient transfection, HeLa cells) MAFHVEGLIAIIVFYLLILLVGIWAAWRTKNSGSAEERSEAIIVGGRDIGLLVGGFTMTATWVGGGYINGTAEAVYVPGYGLAWAQAPIGYSLSLILGGLFFAKPMRSKGYVTMLDPFQQIYGKRMGGLLFIPALMGEMFFAAAIFSALGATISVIIDVDMHISVIISALIATLYTLVGGLYSVAYTDVVQLFCIFVGLWISVPFALSHPAVADIGFTAVHAKYQKPWLGTVDSSEVYSWLDSFLLLMLGGIPWQAYFQRVLSSSSATYAQVLSFLAAFGCLVMAIPAILIGAIGASTDWNQTAYGLPDPKTTEEADMILPIVLQYLCPVYISFFGLGAVSAAVMSSADSSILSASSMFARNIYQLSFRQNASDKEIVWVMRITVFVFGASATAMALLTKTVYGLWYLSSDLVYIVIFPQLLCVLFVKGTNTYGAVAGYVSGLFLRITGGEPYLYLQPLIFYPGYYPDDNGIYNQKFPFKTLAMVTSFLTNICISYLAKYLFESGTLPPKLDVFDAVVARHSEENMDKTIAAKNENIKLDELALVKPRQSMTLSSTFTNKEAFLDVDSSPEGSGTEDNLQ |  | 270.81 ± 14.66 | 0.000588
6 | CHT1 (endocytosis-resistant CHT1-LV/AA, called WT CHT1) (Homo sapiens; L531A/V532A/W62F) (protein, full length; transient transfection, HeLa cells) MAFHVEGLIAIIVFYLLILLVGIWAAWRTKNSGSAEERSEAIIVGGRDIGLLVGGFTMTATFVGGGYINGTAEAVYVPGYGLAWAQAPIGYSLSLILGGLFFAKPMRSKGYVTMLDPFQQIYGKRMGGLLFIPALMGEMFWAAAIFSALGATISVIIDVDMHISVIISALIATLYTLVGGLYSVAYTDVVQLFCIFVGLWISVPFALSHPAVADIGFTAVHAKYQKPWLGTVDSSEVYSWLDSFLLLMLGGIPWQAYFQRVLSSSSATYAQVLSFLAAFGCLVMAIPAILIGAIGASTDWNQTAYGLPDPKTTEEADMILPIVLQYLCPVYISFFGLGAVSAAVMSSADSSILSASSMFARNIYQLSFRQNASDKEIVWVMRITVFVFGASATAMALLTKTVYGLWYLSSDLVYIVIFPQLLCVLFVKGTNTYGAVAGYVSGLFLRITGGEPYLYLQPLIFYPGYYPDDNGIYNQKFPFKTLAMVTSFLTNICISYLAKYLFESGTLPPKLDVFDAVVARHSEENMDKTIAAKNENIKLDELALVKPRQSMTLSSTFTNKEAFLDVDSSPEGSGTEDNLQ |  | 401.72 ± 32.24 | 0.000627
7 | CHT1 (endocytosis-resistant CHT1-LV/AA, called WT CHT1) (Homo sapiens; L531A/V532A) (protein, full length; transient transfection, HeLa cells) MAFHVEGLIAIIVFYLLILLVGIWAAWRTKNSGSAEERSEAIIVGGRDIGLLVGGFTMTATWVGGGYINGTAEAVYVPGYGLAWAQAPIGYSLSLILGGLFFAKPMRSKGYVTMLDPFQQIYGKRMGGLLFIPALMGEMFWAAAIFSALGATISVIIDVDMHISVIISALIATLYTLVGGLYSVAYTDVVQLFCIFVGLWISVPFALSHPAVADIGFTAVHAKYQKPWLGTVDSSEVYSWLDSFLLLMLGGIPWQAYFQRVLSSSSATYAQVLSFLAAFGCLVMAIPAILIGAIGASTDWNQTAYGLPDPKTTEEADMILPIVLQYLCPVYISFFGLGAVSAAVMSSADSSILSASSMFARNIYQLSFRQNASDKEIVWVMRITVFVFGASATAMALLTKTVYGLWYLSSDLVYIVIFPQLLCVLFVKGTNTYGAVAGYVSGLFLRITGGEPYLYLQPLIFYPGYYPDDNGIYNQKFPFKTLAMVTSFLTNICISYLAKYLFESGTLPPKLDVFDAVVARHSEENMDKTIAAKNENIKLDELALVKPRQSMTLSSTFTNKEAFLDVDSSPEGSGTEDNLQ |  | 12.17 ± 1.06 | 0.00118
8 | CHT1 (endocytosis-resistant CHT1-LV/AA, called WT CHT1) (Homo sapiens; L531A/V532A/Y91F) (protein, full length; transient transfection, HeLa cells) MAFHVEGLIAIIVFYLLILLVGIWAAWRTKNSGSAEERSEAIIVGGRDIGLLVGGFTMTATWVGGGYINGTAEAVYVPGYGLAWAQAPIGFSLSLILGGLFFAKPMRSKGYVTMLDPFQQIYGKRMGGLLFIPALMGEMFWAAAIFSALGATISVIIDVDMHISVIISALIATLYTLVGGLYSVAYTDVVQLFCIFVGLWISVPFALSHPAVADIGFTAVHAKYQKPWLGTVDSSEVYSWLDSFLLLMLGGIPWQAYFQRVLSSSSATYAQVLSFLAAFGCLVMAIPAILIGAIGASTDWNQTAYGLPDPKTTEEADMILPIVLQYLCPVYISFFGLGAVSAAVMSSADSSILSASSMFARNIYQLSFRQNASDKEIVWVMRITVFVFGASATAMALLTKTVYGLWYLSSDLVYIVIFPQLLCVLFVKGTNTYGAVAGYVSGLFLRITGGEPYLYLQPLIFYPGYYPDDNGIYNQKFPFKTLAMVTSFLTNICISYLAKYLFESGTLPPKLDVFDAVVARHSEENMDKTIAAKNENIKLDELALVKPRQSMTLSSTFTNKEAFLDVDSSPEGSGTEDNLQ |  | 22.23 ± 1.91 | 0.000353
